Test results: US10995119B2, “Peptide exhibiting hydrolytic activity and use thereof” (Okinawa Institute of Science and Technology School …, priority 2016, dated 2021)
Like-named read-outs stand apart in the source and are kept apart here.

Key:
[1] = target: Aβ1-20 (Homo sapiens, UniProt P05067); experiment: Hydrolysis activity against Aβ1-20
Method: (§6) Further, any change in activity caused by addition of human serum albumin (HSA, Wako Pure Chemical Industries, Ltd., final concentration 0.025%) also was measured.
(§7) As substrates, Aβ42 in the form of soluble powder (authentic sample, Peptide Institute Inc.) and fragment peptides thereof, namely, Aβ1-20, Aβ11-29, and soluble Aβ28-42, were used. […] In the case of MS analysis, the MS analysis was performed after applying 20 μl of the reaction solution to HPLC and collecting an aliquot of the peak.
(§8) The present experiment examined activity against Aβ-Fs in Example 7.
(§9) As substrates, the same Aβ1-20 and Aβ11-29 as used in Example 7 were used.

[2] = target: Aβ11-29 (Homo sapiens, UniProt P05067); experiment: Hydrolysis activity against Aβ11-29
Method: as §6, §7
As a substrate, Aβ11-29, which is a fragment peptide of Aβ42, was used. […] In the case of MS analysis, the MS analysis was performed after applying 20 μl of the reaction solution after the reaction for 6 days to HPLC and collecting an aliquot of the peak.
as §8
The reaction solution V shown in FIG. 52 was incubated at 37° C. for a predetermined time, and autodigestion of ANA-YA4 (YRMI) and cleavage of Aβ11-29 were examined.
A reaction solution VI shown in FIG. 52 was incubated at 37° C. for a predetermined time, and cleavage of Aβ1-20 and Aβ11-29 by ANA-SA5 was examined.
as §9
The present example examined autodigestion and activity against Aβ-F of JAL 12-17 (YKGSGF) and JAL 12-16 (YKGSG). […] As a substrate, the same Aβ11-29 as used in Example 7 was used. The autodigestion was examined by causing the reaction in the same manner, except that the substrate was not added.

[3] = Autodigestion of the catalytic peptide (HPLC, MS); type: biochemical
Method: (§1) First, to a buffer solution (Tris-HCl, pH 6.5, final concentration: 100 mmol/l), JAL (final concentration: 0.2 mmol/l) and the fragment peptide of hMMP7 (final concentration 0.05 mmol/l) were added. […] Thereafter, the reaction solution was subjected to HPLC, and the peaks of JAL and the fragment peptide of hMMP7 were examined. HPLC was performed under the following conditions.
Next, the mechanism of autodigestion was examined using various mutants of JAL as hydrolytic peptides. To a reaction solution containing each of the mutants of JAL, a protease inhibitor (trade name: Roche cOmplete, Roche) was added to cause a reaction. One tablet of the protease inhibitor was dissolved in 1 ml of Milli-Q water, and then, 50 μl of the resultant mixture was added to the reaction solution. […] As a result, the autodigestion of all the peptides subjected to the measurement was inhibited (FIG. 16).
Autodigestion in Box B was examined.
JAL-TA9 was reacted in the same manner except that a substrate was not added to examine the autodigestion of JAL-TA9.
The influence of an inhibitor on autodigestion of JAL-TA9 was examined. […] As the protease inhibitor, the serine protease inhibitor AEBSF, which inhibited the autodigestion of JAL 12-22 C19M in the item (6) in Example 4, was used.

[4] = target: PrP 175-189 (Homo sapiens, UniProt P04156)
[5] = target: T1, hMMP7 1-42 (Homo sapiens, UniProt P09237); experiment: Hydrolysis activity against hMMP7 1-42, optimal pH; type: biochemical; conditions: 5 days
T1 sequence (P09237 18-42): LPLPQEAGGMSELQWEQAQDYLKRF
Description: The pH of the reaction solution was adjusted using an acetate buffer solution in the pH range from 3.5 to 6.0 and using a Tris-HCl buffer solution in the pH range from 6.5 to 8.0. In either case, the final concentration was set to 150 mmol/l.

[6] = target: SOD1 12-38 (Homo sapiens, UniProt P00441); experiment: Hydrolysis activity against SOD1 12-38; type: biochemical; conditions: pH 6.5 or 7.5, 3 or 4 days
[7] = target: T2, hMMP7 26-50 (Homo sapiens, UniProt P09237); experiment: Hydrolysis activity against hMMP7 26-50 (HPLC, MS); type: biochemical
T2 construct: host or cells: synthetic peptide
T2 sequence (P09237 26-50 limits assumed): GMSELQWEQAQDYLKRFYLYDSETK
Method: (§2) The present example examined whether a synthetic peptide JAL has hydrolysis activity against synthetic peptides derived from the prodomain of human matrix metalloprotease 7 (hMMP7).
(§3) The following JAL was used as a hydrolytic peptide, and hMMP7 42-50 or hMMP7 26-50 was used as a substrate.
as §1
(§4) Then, in HPLC, aliquots of the peaks were collected (each 20 μl), and fragment identification was performed by mass spectrometry (ABI QSTAR Elite system) (referred to as “MS” hereinafter). MS was performed by a flow injection method under the following conditions.

[8] = target: SOD1 115-154 (Homo sapiens, UniProt P00441); experiment: Hydrolysis activity against SOD1 115-154; type: biochemical; conditions: pH 6.5 or 7.5, 3 or 4 days
[9] = target: SOD1 53-70 (Homo sapiens, UniProt P00441); experiment: Hydrolysis activity against SOD1 53-70; type: biochemical; conditions: pH 6.5 or 7.5, 3 or 4 days
[10] = target: SOD1 2-12 (Homo sapiens, UniProt P00441); experiment: Hydrolysis activity against SOD1 2-12; type: biochemical
Description: (§5) In JAL 1-22 C19M and JAL 7-22 C19M, Cys residues contained in JAL form S—S bonds during a reaction, and this makes fragment analysis difficult. On this account, JAL 1-22 and JAL 7-22 were modified so as to substitute Cys residues by Met.

[11] = target: SOD1 2-38 (Homo sapiens, UniProt P00441); experiment: Hydrolysis activity against SOD1 2-38; type: biochemical
Method: As a control, physiological saline (0.9 w/v %) was used instead of the buffer solution. […] Also, it is considered that physiological saline is suitable for storage of JAL before use, for example.
Next, an experiment was conducted to consider an optimal pH for activity using JAL as the hydrolytic peptide and SOD1 2-38 as a substrate.
Metal ions to be added to a reaction solution were Zn^2+, Ca^2+, Co^2+, or combinations thereof. The concentrations of the metal ions in the respective reaction solutions were as follows: 10 mmol/l for Ca^2+; and 5 μmol/l for the other metal ions.
as §5

[12] = target: T3, hMMP7 42-50 (Homo sapiens, UniProt P09237); experiment: Hydrolysis activity against hMMP7 42-50 (HPLC, MS); type: biochemical
T3 construct: host or cells: synthetic peptide
Method: as §2, §3, §1, §4

[13] = target: soluble Aβ1-42 (Aβ42 authentic sample) (Homo sapiens, UniProt P05067); experiment: Hydrolysis activity against soluble Aβ1-42 (authentic sample); conditions: Example 9, chimera 0.2 mmol/l, PBS, HSA
Method: as §7
Aβ42 was used as a substrate. […] In the case of MS analysis, the MS analysis was performed after applying 20 μl of the reaction solution after the reaction for 7 days to HPLC and collecting an aliquot of the peak.

[14] = target: Aβ1-19 (Homo sapiens, UniProt P05067); experiment: Hydrolysis activity against Aβ1-19
Method: The present experiment was conducted to consider an optimal concentration of a hydrolytic peptide relative to a substrate, using JAL 7-22 C19M as the hydrolytic peptide and Aβ1-19 as the substrate. The measurement of activity was performed in the same manner as in the above item (1), except that the incubation time was set to 0 days, 3 days, or 5 days.

[15] = Example 5 (1), JAL 14-18 and mutants
[16] = reaction solution VI, reaction for 1 day
[17] = reaction solution VI, reaction for 5 days
[18] = JAL 0.2 mmol/l, substrate 0.05 mmol/l, Tris-HCl pH 6.5, 37° C., 14 days, HPLC
[19] = Example 3 (1), substrate SOD1 2-38 or SOD1 2-12

Sequence of SOD1 2-38 (P00441 2-38 limits assumed): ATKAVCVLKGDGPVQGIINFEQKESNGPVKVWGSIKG
Sequence of SOD1 115-154 (P00441 115-154): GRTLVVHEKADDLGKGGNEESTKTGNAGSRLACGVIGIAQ
Sequence of SOD1 12-38 (P00441 12-38 limits assumed): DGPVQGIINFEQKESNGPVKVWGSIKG

Substance: GSGFR
- hydrolysis activity against Aβ1-20 ([1]; Example 3 (2), (6)): exhibited activity
- hydrolysis activity against Aβ1-20 [1, 15]: strong activity

Substance: YRMI [ANA-SA4]
- cleavage of Aβ1-20 ([1]; reaction solution V, 37° C.): degraded Aβ1-20
- Aβ1-20 peak remaining [1, 16]: 49.6%
- Aβ1-20 peak [1, 17]: almost disappeared
- cleavage of Aβ11-29 ([2]; reaction solution V, 37° C.): degraded Aβ11-29
- Aβ11-29 peak remaining [2, 16]: 72%
- Aβ11-29 peak [2, 17]: almost disappeared
- autodigestion ([3]; reaction solution V, 37° C.): digested itself

Substance: FPEKPCKGSGYRCIRI [BTG1 7-22]
- hydrolysis activity against PrP 175-189 [4]: exhibited activity

Substance: GSGYR
- hydrolysis activity against Aβ1-20 [1, 15]: strong activity

Substance: WVDPYEVSYRIGE [Box B BTG1 8-20]
- hydrolysis activity against Aβ11-29 ([2]; Example 6 (3)): exhibited activity
- autodigestion ([3]; Example 6, HSA added, 5 days): fragments suggesting the occurrence of autodigestion were observed

Substance: KYEGHWYPEKPYKGSGFRCIHI [JAL]
- hydrolysis activity against Aβ1-20 ([1]; Example 3 (2), (6)): has activity
- hydrolysis activity against Aβ1-20 ([1]; PBS (pH 7.4), 3 or 5 days): exhibited activity
- hydrolysis activity against Aβ1-20 ([1]; phosphate buffer solution, 3 or 5 days): did not exhibit activity
- hydrolysis activity against hMMP7 1-42 ([5]; pH 3.5 to 6.0, acetate buffer 150 mmol/l): exhibited activity
- hydrolysis activity against hMMP7 1-42 ([5]; pH 6.5 to 8.0, Tris-HCl 150 mmol/l): the results obtained were the same as that obtained after a lapse of 0 days from the start of the reaction
- hydrolysis activity against SOD1 12-38 [6]: has activity
- cleavage of substrate, fragment identification by MS ([7]; 16 days): cleaved at a plurality of sites
- hydrolysis activity against hMMP7 26-50 [7, 18]: has activity
- hydrolysis activity against SOD1 115-154 [8]: did not exhibit activity
- hydrolysis activity against SOD1 53-70 [9]: strong activity
- autodigestion ([3]; Tris-HCl pH 6.5, 37° C., 14 days, with hMMP7 fragment): autodigestion of JAL occurred
- cleavage sites, fragment identification by MS [10]: a plurality of sites indicated with arrows were cleaved
- hydrolysis activity against SOD1 2-12 ([10]; pH 6.5 or 7.5, 3 or 4 days): has activity
- cleavage sites, fragment identification by MS [11]: a plurality of sites indicated with arrows were cleaved
- hydrolysis activity against SOD1 2-38 ([11]; Tris buffer solution at various concentrations, 1 or 4 days): exhibited activity regardless of the concentration of the Tris buffer solution
- hydrolysis activity against SOD1 2-38 ([11]; assay buffer solution (50 mmol/l Tris-HCl pH 7.5, NaCl, Ca, Zn, Briji35, NaN3) vs Tris buffer pH 6.5, 0, 1, 3 days): cleavage by JAL was observed earlier
- hydrolysis activity against SOD1 2-38 ([11]; only Milli-Q water (0 mmol/l Tris)): did not exhibit activity
- hydrolysis activity against SOD1 2-38 ([11]; pH 6.5 or 7.5, 3 or 4 days): strong activity
- hydrolysis activity against SOD1 2-38 ([11]; pH 6.5 to 8.0 in increments of 0.5, 1 day): exhibited activity at all the pH values
- hydrolysis activity against SOD1 2-38 ([11]; physiological saline (0.9 w/v %) instead of buffer): did not exhibit activity
- hydrolysis activity against SOD1 2-38 ([11]; with or without Zn2+, Ca2+, Co2+, 1 day): exhibited activity regardless of the presence or absence of the metals
- cleavage of substrate, fragment identification by MS ([12]; 16 days): cleaved at a plurality of sites
- hydrolysis activity against hMMP7 42-50 [12, 18]: has activity

Substance: APEKPYKGSGFRMIHA
- hydrolysis activity against Aβ11-29 ([2]; Example 3 (6)): exhibited activity

Substance: GSGVR
- hydrolysis activity against Aβ1-20 [1, 15]: strong activity

Substance: YPEKPLKGSGFRCVHI [Tob2 7-22]
- hydrolysis activity against PrP 175-189 [4]: exhibited activity
- hydrolysis activity against PrP 175-189 ([4]; Cu2+ further added to HSA): exhibited activity

Substance: YKGSGF [JAL 12-17]
- degradation of Aβ-F (Aβ11-29) ([2]; Example 15, peptide 0.2 mmol/l, PBS, HSA): degraded Aβ-F
- autodigestion ([3]; Example 15, substrate not added): digested themselves

Substance: SKGQA [ANA-SA5]
- types of fragments of Aβ1-20 detected ([1]; reaction for 5 days): 12
- types of fragments of Aβ11-29 detected ([2]; reaction for 5 days): 13

Substance: GSGQR
- hydrolysis activity against Aβ11-29 [2, 15]: strong activity

Substance: FVIFLDVKHFSPEDLTVK-AA-YKGSGFRMI (FVIFLDVKHFSPEDLTVKAAYKGSGFRMI) [chimera peptide]
- degradation of Aβ42 (HPLC) [13]: degraded Aβ4211-29 from Day 1
- degradation of Aβ11-29 (HPLC) ([2]; Example 9, chimera 0.2 mmol/l, PBS, HSA): degraded Aβ11-29

Substance: GSGHR
- hydrolysis activity against Aβ11-29 [2, 15]: strong activity

Substance: YPEKPYKGSGFRCIHI [JAL 7-22]
- hydrolysis activity against Aβ1-19 ([14]; high peptide concentration): lowered
- hydrolysis activity against Aβ1-19 ([14]; substrate:peptide 1:1 (0.05 mmol/l) and 1:4 (0.2 mmol/l), 3 or 5 days): strong activity
- hydrolysis activity of JAL mutants [10, 19]: exhibited hydrolysis activity
- hydrolysis activity of JAL mutants [11, 19]: exhibited hydrolysis activity
